Laboratory results as given in article PMC5394236.

Target: GST fused recombinant Pparγ LBD protein (UniProt P37231)
Experiment: co-immunoprecipitation (IP: Flag) with immunoblot band intensity quantification
Conditions: lysates of HEK293 cells transfected with Flag-Lrp1β-Wt or Mut mixed with GST fused recombinant Pparγ LBD protein; n=3; parent: est. 100; read off a plot

UniProt P37231, sequence (P37231 whole entry, the tested form may be a part): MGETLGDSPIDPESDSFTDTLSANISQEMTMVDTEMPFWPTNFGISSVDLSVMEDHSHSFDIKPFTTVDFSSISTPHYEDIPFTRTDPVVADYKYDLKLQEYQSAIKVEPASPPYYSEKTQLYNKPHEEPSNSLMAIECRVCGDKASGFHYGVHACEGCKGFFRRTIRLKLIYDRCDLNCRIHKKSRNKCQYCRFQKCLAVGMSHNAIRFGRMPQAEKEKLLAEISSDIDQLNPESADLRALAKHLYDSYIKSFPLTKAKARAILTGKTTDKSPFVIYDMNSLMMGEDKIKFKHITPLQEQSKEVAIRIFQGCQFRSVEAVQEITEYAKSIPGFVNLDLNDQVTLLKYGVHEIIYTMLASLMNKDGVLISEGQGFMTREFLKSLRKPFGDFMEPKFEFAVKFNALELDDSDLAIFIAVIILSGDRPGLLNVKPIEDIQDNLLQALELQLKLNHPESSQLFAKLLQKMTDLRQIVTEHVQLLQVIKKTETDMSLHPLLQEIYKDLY

percent of parent: 13%
Substance: Flag-Lrp1β-Wt (VGGLL) L4487A; L4488A
